We go through 30 sequences from the nanobody polyreactivity screen of Harvey et al. (2022).

The data set can be described thus: yeast display, Sf9 membrane polyspecificity reagent, FACS + sequencing; frameworks hold sequencing errors. Put shortly:
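Galactose-induced (36–48 hours) yeast carrying a synthetic nanobody display library were exposed to 10% biotinylated, detergent-solubilized Sf9 membrane reagent at 4 °C for 1 hour. FACS followed streptavidin microbead enrichment, using low and high (top ~1%) gates for expression (anti-HA) and reagent binding (streptavidin). Colony PCR, MiSeq 2 × 250 sequencing and CDR-length filtering followed. Labels for polyreactivity reflect the gate of origin.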
For the sequence “QVQLVESGGGLVQAGGSLRLSCAASGFTIGYYAMGWYRQAPGKERELVAAISWSGGRTYYAYSVKGRFTISRDNAKNTVYLQMNSLKPEDTAVYYCAADGQQTYSGYDYWGQGTQVTVSS”, the “polyreactivity (PSR sort gate)” value is “high polyreactivity”.

With “QVQLEESGGGLVQAGGSLRLSSAASGGIFDVSHMGWYRQAPGKERELVAAISENGGSTYYADSVKGRFTISRDNAKNTVYLLMNSLKPADTAVYYCAADYVSLSVFSYWAWYDYWGHGTQVTVSS”, the “polyreactivity (PSR sort gate)” value is on record as “low polyreactivity”.

Consider “QVQLVESGGGLVQAGGSLRLSCAASGRIFLTNTMGWYRQAPGKERELVAGISRGGRTYYADSVKGRFTISRDNAKNTVYLQMNSLKPEDTAVYYCNARLRHSQYAYYYWGQGTQVTVSS”, for which the “polyreactivity (PSR sort gate)” value is “high polyreactivity”.

Take “QVQLVESGGGLVQAGGSLRLSCAASGSTFEVYTMGWSIQSPGKVRELVATISGDDGSTYYADSVKGRFTISRDNAKNTVYLQMNSLKPEDTAVYYCAADYGGFPNYYSTGDYWGQGTQVTVSS”: the “polyreactivity (PSR sort gate)” value is on record as “low polyreactivity”.

On to “QVQLVESGGGLVQAGGSLRLSCAASGSTFVKYAMGWYRQAPGKERELVAAIDSSGGSTYYADSVKGRFTISRDNAKNTVYLQMNSLKAEDTAVYYCAAPRGNRLKGLEGYYWGQGTQVTVSS”, for which the “polyreactivity (PSR sort gate)” value was “high polyreactivity”.

Consider “QVHLVESGGGLVQAGGCLRLSCAASGSIVGYNTMGWYRQAPGKERALVAAISSSGTSTNYPDSVKGRFTISRDNAKNTVYLQMNSLKPDDTAVFYCNTVLRVWSRSGYDYWGQGSQVTVSS”, for which the “polyreactivity (PSR sort gate)” value was “high polyreactivity”.

For the sequence “QVQLVESGGGLVQAGGSHRLSGAASGFIFFYYDMGWYRQAPGKERELVAAISWSGSSTYYADSVNGRFTISRDNAKNTVYLQMNSLNTEDTAVYYCAARYAPSQDWDEYYYWGQGTQVTLSS”, the “polyreactivity (PSR sort gate)” value is “low polyreactivity”.

For “QGQLVESGGGLVQAGGSLRIICAASANNFAKYAMGRYRQAPGKERELVAAISKRGGSTYYADSVKGRFTISRDNAKNTVYLQMNSLKPEETAVYYCAQRVLNYQRYDYWGQGTQVTVSS”, the “polyreactivity (PSR sort gate)” value was “high polyreactivity”.

With “QVQLVESGGGLVQAGGSLRLSCAASGIIFPQYTMGWYRQAPGKERQLVAAITRSGGSTDYADSVKGRFTISRDNAKNTVYLQMNSLKPEDTAVYYCAAGWWRYKYPIGSSYNYWGQGTQVTVSS”, the “polyreactivity (PSR sort gate)” value was “high polyreactivity”.

With “QVQLVESGGGLLQAGGSLRLSCAATGFIFWYYAMGWYRQAPGKEREFVADISSGGSTNYADSVKGRFTISRDNAKNTVYLQMNSLKPEDTAVYDCSKDNYPYHSTVLAVIYDYWGHGTQVTVSS”, the “polyreactivity (PSR sort gate)” value is “low polyreactivity”.

For “QVQLVESGGGLVQAGGSLRLSGAASGSIFYSNAMGWSRQAPGKERELVAAITVRGGSTYYADSVKGRFTISRDNAKNTVYLQMNSLKQEDTAVYYCAAEYVSYSSYIYGYLGQGTQVTVSS”, the “polyreactivity (PSR sort gate)” value is on record as “high polyreactivity”.

For “QVQLVESGGGLVQAGGSLRLSCAASGSIFAYNAMGWYRQAPGKERELVAAITRSGVNTYYADSVKGRFTISRDNAKNTVYLQMNRLKPEDTAVYYCNAVFWGLQKWPQ”, the “polyreactivity (PSR sort gate)” value is “low polyreactivity”.

In the case of “QVQLVESGGALVQAGGSLRISCAASGRIFDGYTMGWSRQAPGKERELVAAITSGGGSTYYADSVKGRFTISRDNAKNTVYLQMNSLKPEDTAVYYCAAYRRNTYWGQGTQVTVSS”, the “polyreactivity (PSR sort gate)” value is listed as “high polyreactivity”.

In the case of “QVQLLESGGGLVQAGGSLRLSCAASGIIFGYYAMGWYRQAPGKERELVAAITWSGGSTYYADSVKGRFTISRDNAKNTVYLQMNSLKPEDTAVYYCNADDDGRVSSTIVEYWVQGTQVTVSS”, the “polyreactivity (PSR sort gate)” value is “low polyreactivity”.

As for “QVQLVESGGGLVQAGGSLRLSCAASGYTFRAYAMGWYRQAPGKEREFVAAISRSGGSTYYADSVKGRFTISRDNAKNTVYLQMNSLKPEDTAVYYCARRYARITPVYPPLNYWGQGSQVTVSS”, the “polyreactivity (PSR sort gate)” value is listed as “high polyreactivity”.

As to “QVQLVESGGGLVQAGGSLRISCAASGSIFYLYTIGWYRQAPGKERELVAAITSGGSTNYADSVKGRFTISRDNAKNTVYLQMNSLKPEDTAVYYCAAEYFDWWVTYDYWGQGTQVTVSS”, the “polyreactivity (PSR sort gate)” value is “high polyreactivity”.

Take “QVQLVESGGGLVQAGGSLRLSCAASGSTFSTNAMGWYRQAPAKERELVAAISYSGGSTYYADSVKGRFTISRDNAKNTVYLQMLSLKPEDTAVYYCAADGYYYNSGGRYYEFYYWGQGTQVTVSS”: the “polyreactivity (PSR sort gate)” value is given as “low polyreactivity”.

For “QVQLVESGGGLVQAGGSLRLSCAASGRIFYAYAMGWYRQEPGKERELVASISGSGGSTYYADSVKGRFTISRDNAKNTVYLQMNRLKPEDTAVYYCAKRYPFYSSGLSTYNYWGQGTQVTVSS”, the “polyreactivity (PSR sort gate)” value is listed as “high polyreactivity”.

With “QVQLVESGGGLLQAGGSLRLSCAASGRIFPYYAMGWYRQAPGKERVLLAAISQSGGRTYYADSVKGRFTISRDNAKNTVFLQMNSLKPEDTAVYYCNADTYSSGYDYWGQGTQVTVSS”, the “polyreactivity (PSR sort gate)” value is recorded as “high polyreactivity”.

Take “QVQLVESGGGLVQAGGSLRLSCAASGFIFRYYTMGWYRQAPGKERELVAAISSGTSTHYADSVKGRYTISRNNAKNTVNLQMNSLKPEDTAVYYCAADLPYWYNRKPIFPYYYWGQGTQVTVSS”: the “polyreactivity (PSR sort gate)” value is “high polyreactivity”.

On to “QVQLVESGGGLVQAGGSLRLSCAASGRIFSYYTMGGYRQAPGTERELVAAISSGGSTNYADSVKGRFTISRDNAKNTVYLQMNSLKPEDTAVYYCAVRSGRRNYDRPAFGYWGQGTQVTVSS”, for which the “polyreactivity (PSR sort gate)” value was “high polyreactivity”.

On to “QVQLVESGGGLVQAGGSLRLSCAASGSIIQVYAMGWYRQATGKERELVASITRTGGSTYYADSVKGRFTISRDNAKNTVYLLMNSLKPEDTAVYYCAAEKRYYYYVKYWKSDYWGQGTQVTVSS”, for which the “polyreactivity (PSR sort gate)” value is “low polyreactivity”.

Turning to “QVQLVESGGGLVQAGGSLRLSCAASGRTFYGYAMGWYRQAPGKERELVAAISFSGGRTYYADSVKGRFTISRDNAKNTVYLQMNSLKPEDTAVYYCAAVPRGWFSYPSGYDYWGQGTQVTVSS”, the “polyreactivity (PSR sort gate)” value is on record as “high polyreactivity”.

With “QVQLVESGGGLVQAGGSLRLSRAASGVIIYRYAMGWYRQAPGKERELVAAISRSGGSTYYADSVKGRFTISRDNAMNTVYLQMNCLKPEDTAVYYCAADRGSLAPGNDYWGQGTQVTVSS”, the “polyreactivity (PSR sort gate)” value is “high polyreactivity”.

Regarding “QVQLVESGGGLVQAGGSLRLSCAASGSIFHPYAMGWYRQAPGKERELVAAISKSGGNTYYADSVKGRFTISRDNAKNTVYLQMNSLKPEDTAVYYCAALDYWGQVTQVTVSS”, the “polyreactivity (PSR sort gate)” value is given as “low polyreactivity”.

For the sequence “QVQLVESGGGLVQAGGSLRLSCAASGSTFKIYAMGWYRQAPGKERELVARITGRGGSTYYADSVKGRFTISRDNAKNTVYLQMNSLKPEDTAVYYCAREWYQYSPYHRFDYWGQGTQVTVSS”, the “polyreactivity (PSR sort gate)” value is “high polyreactivity”.

Turning to “QVQLVESGGGLVQAGGSLRLSCAASGRIFGVYAMGWYRQAPGKERELVAAISSTGDRTYYADSVKGRFTISRDNAKNTVYLQMNSLKPEDTAVYYCAARPAYRSSYYWGQGTQVTVSS”, the “polyreactivity (PSR sort gate)” value is given as “high polyreactivity”.

Turning to “QVQLVESGGGLVQAGGSLRLSCAASGSIFVYYAMGWYRQAPGKERELVAAISQRGGRTYYADSVKGRFTISRDNAKNTVYLQMNSLKPEDTAVYYCAARAWTRSVPYGFYYWGQGTQVTVSS”, the “polyreactivity (PSR sort gate)” value was “high polyreactivity”.

On to “QVQLVESGGGLVQAGGILRLSCDASGLIFGPYTMGWYRQAPGKERELVAAISYGGVSTYYADSVKGRFTISRDNAKNTVYLQMNSLKPEDTAVYYCARGDSTRVIRPSAREYDYWGQGTQVTVSS”, for which the “polyreactivity (PSR sort gate)” value is recorded as “low polyreactivity”.

“QVQLVESGGGLVQAGGSLRLSCAASGFTFRVYAMGWYRQPPGKERELVAVISGTGGRTYYADSVKGRFTISRDNAKNTVYLQMNSLKPEDTAVYYCAAVGLTPKAIWTSDYWGQGTQVTVSS”: the “polyreactivity (PSR sort gate)” value is listed as “high polyreactivity”.
